Among the targets are AMPK (r) (rat (r), UniProt Q09137 1-552, limits assumed); CaMKI (h) (human (h), UniProt Q14012 1-370, limits assumed); CDKI/cyclinB (h) (human (h), UniProt P06493 1-297); cKit (h) (human (h), UniProt P10721 544-976, limits assumed); L1MK1 (h) (human (h), UniProt P53667 285-638, limits assumed); MAPKAP-K2 (h) (human (h), UniProt P49137 46-400, limits assumed); MSK1 (h) (human (h), UniProt O75582 1-802); MSK2 (h) (human (h), UniProt O75676 1-772, limits assumed); PKCδ (h) (human (h), UniProt Q05655 1-676); TrkA (h) (human (h), UniProt P04629 441-796, limits assumed).

Holding throughout (assay): cell-based or functional assay
The next assay has as its target T1, CHK1 (h) (human (h), UniProt O14757 1-476).
T1 sequence (looked up): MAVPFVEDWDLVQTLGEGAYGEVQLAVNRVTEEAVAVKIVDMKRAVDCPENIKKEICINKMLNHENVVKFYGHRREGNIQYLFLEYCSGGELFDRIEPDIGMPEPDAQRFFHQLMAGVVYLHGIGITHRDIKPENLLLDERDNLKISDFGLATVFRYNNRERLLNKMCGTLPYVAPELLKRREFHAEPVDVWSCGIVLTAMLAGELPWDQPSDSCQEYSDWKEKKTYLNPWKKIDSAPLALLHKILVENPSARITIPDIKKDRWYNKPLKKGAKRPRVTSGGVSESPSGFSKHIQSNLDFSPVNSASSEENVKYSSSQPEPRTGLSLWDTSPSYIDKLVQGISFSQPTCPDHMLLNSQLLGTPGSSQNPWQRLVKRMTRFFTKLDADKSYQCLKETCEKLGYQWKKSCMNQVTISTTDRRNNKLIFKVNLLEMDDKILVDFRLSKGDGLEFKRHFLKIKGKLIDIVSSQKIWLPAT

PKCδ (h), sequence (Q05655 whole entry, stated change not applied): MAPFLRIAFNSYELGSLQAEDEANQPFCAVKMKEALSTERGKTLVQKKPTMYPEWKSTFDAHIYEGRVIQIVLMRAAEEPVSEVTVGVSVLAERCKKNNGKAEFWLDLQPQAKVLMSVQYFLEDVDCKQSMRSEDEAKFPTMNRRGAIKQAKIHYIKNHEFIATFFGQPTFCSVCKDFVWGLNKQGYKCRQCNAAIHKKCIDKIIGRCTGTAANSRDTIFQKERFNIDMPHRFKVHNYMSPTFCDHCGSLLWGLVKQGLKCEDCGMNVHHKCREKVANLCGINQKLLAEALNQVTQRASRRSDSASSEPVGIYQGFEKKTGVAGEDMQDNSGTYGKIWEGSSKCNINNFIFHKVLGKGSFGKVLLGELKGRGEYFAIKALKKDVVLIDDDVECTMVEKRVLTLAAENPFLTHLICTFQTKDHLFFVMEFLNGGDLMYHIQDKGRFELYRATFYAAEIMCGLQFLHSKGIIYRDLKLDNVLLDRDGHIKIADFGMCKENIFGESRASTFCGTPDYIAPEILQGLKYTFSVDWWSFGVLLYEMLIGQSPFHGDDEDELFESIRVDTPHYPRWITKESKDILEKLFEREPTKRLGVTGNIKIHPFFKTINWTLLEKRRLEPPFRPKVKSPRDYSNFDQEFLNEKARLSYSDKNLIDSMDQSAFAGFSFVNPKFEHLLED
MAPKAP-K2 (h), sequence (P49137 46-400 limits assumed): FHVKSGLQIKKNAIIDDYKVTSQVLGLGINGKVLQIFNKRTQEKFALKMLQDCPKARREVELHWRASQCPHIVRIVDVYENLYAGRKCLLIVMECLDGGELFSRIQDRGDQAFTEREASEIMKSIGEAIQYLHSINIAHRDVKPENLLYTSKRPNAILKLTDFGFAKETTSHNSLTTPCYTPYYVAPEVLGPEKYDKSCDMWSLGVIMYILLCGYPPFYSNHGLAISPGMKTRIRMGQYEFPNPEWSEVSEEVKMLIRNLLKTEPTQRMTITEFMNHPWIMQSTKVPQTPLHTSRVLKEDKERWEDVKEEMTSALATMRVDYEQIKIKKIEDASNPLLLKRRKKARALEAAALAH
TrkA (h), sequence (P04629 441-796 limits assumed): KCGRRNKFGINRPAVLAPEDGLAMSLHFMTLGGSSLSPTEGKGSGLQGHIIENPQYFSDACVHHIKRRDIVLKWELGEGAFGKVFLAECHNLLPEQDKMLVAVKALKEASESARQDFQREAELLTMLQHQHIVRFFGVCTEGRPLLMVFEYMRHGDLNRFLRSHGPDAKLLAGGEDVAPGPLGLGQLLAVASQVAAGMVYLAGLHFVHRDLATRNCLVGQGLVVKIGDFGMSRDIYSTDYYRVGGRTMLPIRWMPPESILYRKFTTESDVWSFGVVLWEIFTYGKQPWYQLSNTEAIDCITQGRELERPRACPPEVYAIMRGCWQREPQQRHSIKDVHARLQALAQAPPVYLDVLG
AMPK (r), sequence (Q09137 whole entry): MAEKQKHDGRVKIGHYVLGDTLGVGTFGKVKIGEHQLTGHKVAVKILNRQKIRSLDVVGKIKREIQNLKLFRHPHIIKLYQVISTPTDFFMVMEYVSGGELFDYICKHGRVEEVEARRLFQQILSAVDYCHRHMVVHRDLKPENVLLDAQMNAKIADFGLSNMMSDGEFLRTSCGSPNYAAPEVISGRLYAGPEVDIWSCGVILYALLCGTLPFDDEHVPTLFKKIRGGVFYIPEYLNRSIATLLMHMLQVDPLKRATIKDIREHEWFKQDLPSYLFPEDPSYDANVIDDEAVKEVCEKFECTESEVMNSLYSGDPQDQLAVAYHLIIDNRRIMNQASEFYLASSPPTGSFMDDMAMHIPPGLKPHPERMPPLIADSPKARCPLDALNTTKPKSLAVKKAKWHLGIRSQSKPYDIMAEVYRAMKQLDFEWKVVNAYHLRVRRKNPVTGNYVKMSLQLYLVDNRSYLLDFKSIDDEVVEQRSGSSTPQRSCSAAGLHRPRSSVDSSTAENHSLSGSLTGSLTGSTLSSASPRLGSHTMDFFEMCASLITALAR
cKit (h), sequence (P10721 544-976 limits assumed): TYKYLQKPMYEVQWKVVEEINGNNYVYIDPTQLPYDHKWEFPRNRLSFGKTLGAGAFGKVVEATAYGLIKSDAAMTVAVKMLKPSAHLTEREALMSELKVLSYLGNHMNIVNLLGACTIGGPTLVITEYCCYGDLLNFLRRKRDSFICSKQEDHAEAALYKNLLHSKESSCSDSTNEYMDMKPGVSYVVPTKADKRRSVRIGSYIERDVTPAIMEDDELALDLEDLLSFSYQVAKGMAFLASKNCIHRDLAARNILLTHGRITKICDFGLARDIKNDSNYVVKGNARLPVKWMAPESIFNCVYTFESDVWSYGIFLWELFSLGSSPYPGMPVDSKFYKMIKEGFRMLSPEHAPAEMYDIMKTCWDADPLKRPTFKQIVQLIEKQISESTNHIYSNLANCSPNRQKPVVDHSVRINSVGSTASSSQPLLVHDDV
L1MK1 (h), sequence (P53667 285-638 limits assumed): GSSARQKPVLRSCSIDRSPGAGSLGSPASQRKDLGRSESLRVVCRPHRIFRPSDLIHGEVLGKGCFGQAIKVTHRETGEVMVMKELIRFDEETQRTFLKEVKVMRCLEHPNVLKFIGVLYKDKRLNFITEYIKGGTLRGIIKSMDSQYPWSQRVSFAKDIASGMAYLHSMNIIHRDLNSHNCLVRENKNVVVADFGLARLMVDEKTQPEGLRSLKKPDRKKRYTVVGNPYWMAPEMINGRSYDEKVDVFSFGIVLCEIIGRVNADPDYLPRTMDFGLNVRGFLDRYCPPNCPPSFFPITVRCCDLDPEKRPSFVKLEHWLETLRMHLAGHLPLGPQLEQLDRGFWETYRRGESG
CDKI/cyclinB (h), sequence (P06493 whole entry): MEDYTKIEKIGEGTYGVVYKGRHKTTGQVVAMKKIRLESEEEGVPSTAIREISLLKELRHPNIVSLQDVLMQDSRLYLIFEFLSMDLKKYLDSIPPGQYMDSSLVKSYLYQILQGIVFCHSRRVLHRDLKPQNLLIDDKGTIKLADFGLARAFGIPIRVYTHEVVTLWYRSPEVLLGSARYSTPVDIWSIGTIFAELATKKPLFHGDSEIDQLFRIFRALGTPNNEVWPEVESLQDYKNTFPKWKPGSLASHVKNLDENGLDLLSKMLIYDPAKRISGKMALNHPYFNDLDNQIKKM
MSK1 (h), sequence (O75582 whole entry): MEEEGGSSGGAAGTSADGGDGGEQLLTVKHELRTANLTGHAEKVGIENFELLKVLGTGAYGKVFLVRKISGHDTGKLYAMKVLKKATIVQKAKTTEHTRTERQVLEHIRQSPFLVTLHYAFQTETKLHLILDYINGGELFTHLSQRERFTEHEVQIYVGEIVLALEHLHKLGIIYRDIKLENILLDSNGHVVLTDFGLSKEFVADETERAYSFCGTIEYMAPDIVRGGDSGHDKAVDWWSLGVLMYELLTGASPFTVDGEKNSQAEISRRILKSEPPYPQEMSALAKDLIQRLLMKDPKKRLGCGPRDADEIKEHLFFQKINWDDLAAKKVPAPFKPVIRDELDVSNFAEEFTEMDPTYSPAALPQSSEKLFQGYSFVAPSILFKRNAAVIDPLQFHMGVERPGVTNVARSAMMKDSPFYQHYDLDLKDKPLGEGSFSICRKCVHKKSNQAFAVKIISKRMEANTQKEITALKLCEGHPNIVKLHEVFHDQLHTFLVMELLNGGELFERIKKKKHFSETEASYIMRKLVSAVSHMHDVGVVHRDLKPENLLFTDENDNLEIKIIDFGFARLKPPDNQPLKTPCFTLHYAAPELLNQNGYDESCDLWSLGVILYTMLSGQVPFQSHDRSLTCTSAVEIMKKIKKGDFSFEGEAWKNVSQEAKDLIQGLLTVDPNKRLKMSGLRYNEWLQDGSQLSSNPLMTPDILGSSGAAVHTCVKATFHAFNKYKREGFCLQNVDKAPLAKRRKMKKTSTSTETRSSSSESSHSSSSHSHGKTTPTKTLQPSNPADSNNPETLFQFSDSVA
CaMKI (h), sequence (Q14012 whole entry): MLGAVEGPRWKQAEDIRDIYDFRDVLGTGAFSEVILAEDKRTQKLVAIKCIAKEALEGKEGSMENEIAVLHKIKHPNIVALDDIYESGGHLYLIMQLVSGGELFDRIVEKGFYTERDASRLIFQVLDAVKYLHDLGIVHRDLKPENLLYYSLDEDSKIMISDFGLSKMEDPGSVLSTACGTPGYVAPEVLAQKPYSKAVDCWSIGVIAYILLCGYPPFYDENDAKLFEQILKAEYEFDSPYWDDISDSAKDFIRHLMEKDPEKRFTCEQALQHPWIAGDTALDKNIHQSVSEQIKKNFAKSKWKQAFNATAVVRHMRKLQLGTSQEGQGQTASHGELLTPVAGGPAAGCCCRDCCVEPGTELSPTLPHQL
MSK2 (h), sequence (O75676 whole entry): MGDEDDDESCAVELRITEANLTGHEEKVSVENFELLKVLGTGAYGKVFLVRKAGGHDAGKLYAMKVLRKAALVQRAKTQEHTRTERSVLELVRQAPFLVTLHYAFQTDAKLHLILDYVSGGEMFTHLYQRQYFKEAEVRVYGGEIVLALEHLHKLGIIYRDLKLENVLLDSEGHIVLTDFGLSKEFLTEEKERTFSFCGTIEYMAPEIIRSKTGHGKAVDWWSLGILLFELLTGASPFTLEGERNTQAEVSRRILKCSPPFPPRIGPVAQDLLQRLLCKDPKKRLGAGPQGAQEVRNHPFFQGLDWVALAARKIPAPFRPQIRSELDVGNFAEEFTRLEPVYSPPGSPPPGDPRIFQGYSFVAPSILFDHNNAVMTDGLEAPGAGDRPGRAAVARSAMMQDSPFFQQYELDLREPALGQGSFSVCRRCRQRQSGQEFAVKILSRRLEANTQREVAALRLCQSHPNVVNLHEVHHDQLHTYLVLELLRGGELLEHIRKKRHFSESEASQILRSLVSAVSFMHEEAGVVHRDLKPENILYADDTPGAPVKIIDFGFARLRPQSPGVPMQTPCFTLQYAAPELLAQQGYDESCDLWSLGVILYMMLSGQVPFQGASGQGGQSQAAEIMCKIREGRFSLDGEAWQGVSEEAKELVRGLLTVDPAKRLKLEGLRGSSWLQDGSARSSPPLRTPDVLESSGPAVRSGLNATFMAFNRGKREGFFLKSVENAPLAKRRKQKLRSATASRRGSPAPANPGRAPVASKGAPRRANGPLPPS

For the molecule KAFAKLAARLYRKALARQLGVAA, the “Profile-1 @ = 100 µm (kinase profiler assay)” value with AMPK (r) was 118; in the assay with CaMKI (h), 0; with CDKI/cyclinB (h), 55; with CHK1 (h), 68; with cKit (h), 31; in the assay with L1MK1 (h) it was 93. Further, the “Profile-1 @ = 100 µm (kinase profiler assay)” value with MAPKAP-K2 (h) turned out to be 8; with MSK1 (h), 13; in the assay with MSK2 (h), 30; with PKCδ (h), 24; with TrkA (h), 16.
